B1: Drosophila PERIOD fragment dPER[232–599], wild-type (domain or fragment)
chain: not shown
notes: GST fusion from pGEX-6P2, GST removed with PreScission protease
B2: dPER[232–599] W482E (domain or fragment)
chain: not shown
notes: also called dPER(W482E)
B3: dPER[232–599] M560D (domain or fragment)
chain: not shown
notes: also called dPER(M560D)
B4: mouse PERIOD2 fragment mPER2[128–473], wild-type (domain or fragment, UniProt O54943 128-473, looked up)
chain: GKASTLATLKYALRSVKQVKANEEYYQLLMSSESQPCSVDVPSYSMEQVEGITSEYIVKNADMFAVAVSLVSGKILYISNQVASIFHCKKDAFSDAKFVEFLAPHDVSVFHSYTTPYKLPPWSVCSGLDSFTQECMEEKSFFCRVSVGKHHENEIRYQPFRMTPYLVKVQEQQGAESQLCCLLLAERVHSGYEAPRIPPEKRIFTTTHTPNCLFQAVDERAVPLLGYLPQDLIETPVLVQLHPSDRPLMLAIHKKILQAGGQPFDYSPIRFRTRNGEYITLDTSWSSFINPWSRKISFIIGRHKVRVGPLNEDVFAAPPCPEEKTPHPSVQELTEQIHRLLMQPVP
notes: also called N-terminally extended PAS domain fragment
B5: mouse PERIOD2 fragment mPER2[170–473] (domain or fragment)
chain: GSSYSMEQVEGITSEYIVKNADMFAVAVSLVSGKILYISNQVASIFHCKKDAFSDAKFVEFLAPHDVSVFHSYTTPYKLPPWSVCSGLDSFTQECMEEKSFFCRVSVGKHHENEIRYQPFRMTPYLVKVQEQQGAESQLCCLLLAERVHSGYEAPRIPPEKRIFTTTHTPNCLFQAVDERAVPLLGYLPQDLIETPVLVQLHPSDRPLMLAIHKKILQAGGQPFDYSPIRFRTRNGEYITLDTSWSSFINPWSRKISFIIGRHKVRVGPLNEDVFAAPPCPEEKTPHPSVQELTEQIHRLLMQPVP
notes: two additional N-terminal residues (Gly168 and Ser169) seen in molecule 1 of the crystal, cloning artefacts; GST fusion from pGEX-6P2, GST removed with PreScission protease; also called crystallized mPER2 fragment

Biological target: the molecule itself
Assay: AUC; sedimentation equilibrium, interference optics, 10 °C, 25 mM HEPES pH 7.7, 100 mM NaCl, 2 mM DTE; four starting concentrations from stocks of 0.8–2 mg/ml; dimer to monomers, K D = 1/K A

Protein | Kd [nM]
B1 | 200
B2 | 3700
B3 | 7140
B4 | 2250
B5 | 1340
